{"source": "patent US20110300113A1", "about": "“Death Receptor CD95 Controls Neurogenesis of Adult Neural Stem Cells in Vivo and in Vitro” (DEUTSCHES KREBSFORSCHUNGSZENTRUM, priority 2006, published 2011)", "key": {"[1]": {"test_system": "GSK3β and AKT phosphorylation", "assay": "Western blot of GSK3β and AKT phosphorylation in NSCs", "format": "cell-based, mouse", "settings": "inhibitor pretreatment", "procedure": "Western Blots. Phosphorylated GSK3β (P-Ser9-GSK3β, 1:1000), phosphorylated AKT (P-Ser473-KT, 1:1000), total AKT (T-AKT, 1:1000), Src family kinases (Src, 1:1000), cleaved caspase 3 (1:250), total β-Catenin (1:1000) and phosphorylated src (Tyr416) were purchased from Cell Signaling/New England Biolabs. pp60(c-Src) antibody was purchased from Upstate. Antibody against total GSK3β (T-GSK3β, 1:1000), were purchased from Santa Cruz. The PI3K inhibitor […] (25 μM) and the Src family kinase inhibitor PP2 (20 μM) were purchased from Calbiochem. Cells were preincubated with inhibitors 30 minutes (LY 294002) and 1 hour (PP2) prior to treatment. Cells were lysed for further biochemical analysis. Protein extraction and immunoblotting was performed as previously described."}, "[2]": {"target": "CD95 (APO-1 or Fas), mouse, endogenous in neural stem cells / brain tissue (mouse) (UniProt P25446)", "sequence (P25446 22-327)": "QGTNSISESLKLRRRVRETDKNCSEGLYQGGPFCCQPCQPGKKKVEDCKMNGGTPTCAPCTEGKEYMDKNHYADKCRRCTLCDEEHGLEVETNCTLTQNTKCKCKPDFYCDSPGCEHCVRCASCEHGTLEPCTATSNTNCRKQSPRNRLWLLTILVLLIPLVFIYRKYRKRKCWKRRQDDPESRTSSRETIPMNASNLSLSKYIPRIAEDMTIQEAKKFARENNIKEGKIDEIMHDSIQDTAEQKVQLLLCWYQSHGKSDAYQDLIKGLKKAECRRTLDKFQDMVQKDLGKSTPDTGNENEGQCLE", "assay": "cell-based or functional assay"}, "SVZ NSCs": {"test_system": "SVZ NSCs", "assay": "β-III-tubulin expression in adult SVZ neural progenitor cells (flow cytometry)", "format": "cell-based, mouse", "settings": "exogenous BDNF alone; data not shown", "excerpt": "Lentiviral infections. SVZ NSCs were infected with the lentiviral vector pEIGW and pEIGW-GSK3βS9A at a multiplicity of infection (MOI) of 5. The plasmids were constructed by replacing the eGFP sequence between the EF1α promotor and the WPRE element in pWPTS-eGFP with the IRES-eGFP cassette form pIRES2-eGFP (Clontech, Germany). The recombinant lentiviral vector pEIGW-GSK3βS9A was constructed using pcDNA3 HA-GSK3βS9A. This vector encodes a constitutively active GSK3β mutant containing a serine-to-alanine substitution at residue 9 (GSK3βS9A). Expression of all transgenes was confirmed in infected cells by FACS analysis of GFP expression. The percentage of infected cells was 70-90%.\nsiRNA. […] 48 h later pp60 src knockdown was assessed by Western Blot. At the same time, cells were stimulated with CD95L-T4 and analysed after 48 h for β-III-tubulin positive cells.\nFor staining of intracellular markers, cells were harvested, fixed with 4% PFA for 10 min on ice, washed and permeabilized using 0.1% Saponin (Sigma-Aldrich) in PBS with 10% FCS (SAP). […] Cells were washed again three times with SAP and analysed. […] To quantify DNA fragmentation, cells detached with trypsin were centrifuged, washed and fixed with 70% ethanol at −20° C. for 1 h. […] After final washings, all samples were analysed using a FACS-Calibur (Becton Dickinson) and CellQuest Software (Becton Dickinson). […]"}, "neural progenitor cells": {"test_system": "neural progenitor cells", "assay": "GFAP expression (glial differentiation) in neural progenitor cells", "format": "cell-based, mouse", "settings": "data not shown", "procedure": "For staining of intracellular markers, cells were harvested, fixed with 4% PFA for 10 min on ice, washed and permeabilized using 0.1% Saponin (Sigma-Aldrich) in PBS with 10% FCS (SAP). Cells were incubated with primary antibody or isotype for 30 min on ice. Cells were washed three time with SAP and incubated with secondary antibody for 30 min on ice. Cells were washed again three times with SAP and analysed. Antibodies used were: anti β-III-tubulin (Chemicon) 1:100, anti GFAP (Chemicon) 1:100 and isotype mouse IgG1 (Sigma) 1:20. Secondary antibody was goat anti-mouse PE 1:100 (Dianova). To quantify DNA fragmentation, cells detached with trypsin were centrifuged, washed and fixed with 70% ethanol at −20° C. for 1 h. Fixed cells were resuspended in a hypotonic lysis buffer (0.1% sodium citrate and 0.1% Triton X-100) containing […] of propidium iodide, incubated at 4° C. overnight. After final washings, all samples were analysed using a FACS-Calibur (Becton Dickinson) and CellQuest Software (Becton Dickinson).\nMouse adult neural stem cell culture. NSCs were isolated as previously described^30. Briefly, 6 week old female C57BL6 mice were sacrificied and tissue from hippocampus, SVZ and spinal cord was dissected out. […]"}, "mouse adult SVZ NSCs": {"test_system": "mouse adult SVZ NSCs", "assay": "Gene expression by quantitative real-time PCR in adult SVZ NSCs", "format": "cell-based", "settings": "48 h after stimulation", "procedure": "Real-time Quantitative PCR. 24 h cells after plating cells were stimulated with 1 activation unit of CD95L-T4. After 48 h RNA was isolated using the RNeasy Mini Kit (Qiagen). Real-time quantitative PCR was carried out using Sybr Green core kits (Eurogentec) and Uracil-N-glycosylase (Eurogentec). For determining CD95L induction after global ischemia, the hippocampi were dissected out and stored in RNAlater reagent (Ambion). RNA was extracted using the RNeasy Mini Kit (Qiagen). Real-time quantitative PCR was carried out using Sybr Green core kits (Eurogentec) and Uracil-N-glycosylase (Eurogentec). Primers used for quantitative real-time PCR were designed using Primer 3 software (http://fokker.wi.mit.edu/cgi-bin/primer3/primer3_www.cgi)."}}, "data": [{"molecule": "CC(C)(C)n1nc(-c2ccc(Cl)cc2)c2c(N)ncnc21", "note": "[PP2]", "values": [{"measurement": "phosphorylation of GSK3β", "setting": "[1]; CD95-induced", "result": "inhibited phosphorylation"}, {"measurement": "phosphorylation of AKT", "setting": "[1]; induced by CD95L", "result": "inhibited phosphorylation"}]}, {"molecule": "mus musculus CD95-Ligand-T4 (mmCD95L-T4) (from UniProt P41047 140-279; P10104 458-484)", "values": [{"measurement": "PI3K activity at 1 min after treatment with 1 U of CD95L-T4 (relative to untreated = 1) (fold of untreated)", "setting": "[2]", "result": 1.38}, {"measurement": "PI3K activity at 5 min after treatment with 1 U of CD95L-T4 (relative to untreated = 1) (fold of untreated)", "setting": "[2]", "result": 1.53}, {"measurement": "β-III-tubulin positive cells, NSCs with control siRNA, after CD95L-T4", "setting": "[2]", "result": 18.1, "unit": "%"}, {"measurement": "β-III-tubulin positive cells, NSCs with transfection reagent only, after CD95L-T4", "setting": "[2]", "result": 17.1, "unit": "%"}]}, {"molecule": "BDNF: brain-derived nerve factor, a neurotrophin (protein, UniProt P23560 19-247, looked up) Neurotrophic factor BDNF …: APMKEANIRGQGGLAYPGVRTHGTLESVNGPKAGSRGLTSLADTFEHVIEELLDEDQKVRPNEENNKDADLYTSRVMLSSQVPLEPPLLFLLEEYKNYLDAANMSMRVRRHSDPARRGELSVCDSISEWVTAADKKTAVDMSGGTVTVLEKVPVSKGQLKQYFYETKCNPMGYTKEGCRGIDKRHWNSQCRTTQSYVRALTMDSKKRIGWRFIRIDTSCVCTLTIKRGR", "values": [{"measurement": "β-III-tubulin expression", "setting": "SVZ NSCs", "result": "did not increase β-III-tubulin expression"}]}, {"molecule": "CNTF: inducer of astrocytic differentiation (protein, UniProt P26441 1-200, looked up) Ciliary neurotrophic factor: MAFTEHSPLTPHRRDLCSRSIWLARKIRSDLTALTESYVKHQGLNKNINLDSADGMPVASTDQWSELTEAERLQENLQAYRTFHVLLARLLEDQQVHFTPTEGDFHQAIHTLLLQVAAFAYQIEELMILLEYKIPRNEADGMPINVGDGGLFEKKLWGLKVLQELSQWTVRSIHDLRFISSHQTGIPARGSHYIANNKKM", "values": [{"measurement": "GFAP expression", "setting": "neural progenitor cells", "result": "enhanced expression of GFAP"}, {"measurement": "BDNF expression", "setting": "mouse adult SVZ NSCs", "result": "induced"}, {"measurement": "Doublecortin like kinase1 (DCLK) expression", "setting": "mouse adult SVZ NSCs", "result": "no effect on DCLK expression"}, {"measurement": "Jagged1 mRNA levels", "setting": "mouse adult SVZ NSCs", "result": "decreased"}, {"measurement": "Neurogenin (Ngn1) expression", "setting": "mouse adult SVZ NSCs", "result": "almost complete loss of Ngn1 mRNA"}]}]}
